The nanobody polyreactivity screen of Harvey et al. (2022)

Assay: yeast display, Sf9 membrane polyspecificity reagent, FACS + sequencing; frameworks hold sequencing errors
Outline: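 A synthetic nanobody library was expressed on Saccharomyces cerevisiae BJ5465 by galactose induction for 36–48 hours. The library was stained for 1 hour at 4 °C with 10% biotinylated, detergent-solubilized Sf9 membrane reagent and enriched with streptavidin microbeads before FACS. Low and high (top ~1%) gates were set on anti-HA fluorescence for expression and streptavidin fluorescence for reagent binding, and each polyreactivity label reflects the gate of origin.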

Row | Sequence | polyreactivity (PSR sort gate)
1 | QVQLVESGGGLVQAGGSLRISCAASGINFSVNAMGWYRQAPGKERELVAAITYSGGSTYYADSVKGRFTISRDNAKNTVYLQMNSLKPEDTAVYYCAAETYSSGEWYDYWGQGTQVTVSS | high polyreactivity
2 | QVQLVESGGGLVQAGGSLRLSCAASGRIFRYNAMGWYRQAPGKERELVAAISGSGDRMYYADSVKGRFTISRDNAKNTVYFHMNSLKPEDTAVYYCAADVVWRQYGSWFYYWGQGTQVTVSS | high polyreactivity
3 | QVQLVESGGGLVQAGGSLRLSCAASGSIFVNYAMGWYRQAPGKERELVAAISGRGGSTYYADSVKGRFTISRDNAKNTVYLQMNSLKPEDTAVFYCARYGYYGHDWGQGTQVTVSS | high polyreactivity
4 | QVQLVESGGGLVQAGGSLRLSCAASGLIFDRNAMGWYRQAPGKERELVAAITYSGSRTYYADSVKGRFTISRDNAKNTVYLQMNSLKPEDTAVYYCAARHRYSAGTEYNYWGQGTQVTVSS | high polyreactivity
5 | QVQLVESGGGLVQAGGRLRLSCSASGSTFGYYAMGWYRQAHGKQRELDASITWTGGSTYYADSVKGRFTISRDNAKYTVYLLMNSLKPEDTAVYYCAAQLEASYWLWTGYGYLGQGTQVTVSS | high polyreactivity
6 | QVQLVESGGGLVQAGGSIRLSCAASGGTFSAYAMGWYRQAPGKERELVAAINISGGRTYYADSVKGRFTISRDNAKNTVYLQMNSLKPEDTAVYYCAAKNFRDRGNDYWGQGTQVTVSS | high polyreactivity
7 | QVQLVESGGGLVQAGGSLRLSCAASGSIFAAYAMGWYRQAPGKERELVAAIDRGGSTDYADSVKGRFTISRDNAKNTVYLQMNSLKPEDTAVYYCAKGYDYYVRRYYYWGQGTQVTVSS | high polyreactivity
8 | QVQLEESGGGLVQAGGSLRLSCAAYGGIFGYYPMGWYRQATGKERELVAAINYSGGSTYYADSVKGRFTISRDNSKNTVYLQMNSLKPEVTAVYYCAKRSYGGTLHYAFDSWGQGTQVTVSS | low polyreactivity
9 | QVQLVESGGGLVQAGGSLRLSCAASRSTFYRYTMGWYIQAPGKERELVADITGSGGRTYYADSVKGRFTISRDNAKNTVYLQMNSLIPEDTAVYYCNAAYVWYRARAGSEDYWGQGTQVTVSS | high polyreactivity
10 | QVQLVESGGGLVQAGGSLSLSCAASGSILAVYTMGWYRQAPGTVRELVAAITVSSGRTYYADSVKGRFTISRDNAKNTVYLQMNSLKPEDTSVYYCAALYWRSKLRPYEYWGQGTQVTVSS | high polyreactivity
11 | QVQLQESAGGLVKAGGSLRLSCAASGNISNHNDMRWYRQAPGKEREFVAGITAGGNTNYADSVKGRFTISRDNAKNTVYLQMNSLKPEDTAVYYCAAYPDYAKSYGYWGQGTQATVSS | low polyreactivity
12 | QVQLVESGGGLVQAGGSRRLSCAASGFMFGVNAMGWYRQAPGKERELVAVISVRGGSTYYADSLKGRFTISRDNAKNTVYLQMNSLKPEDTAVYYCAADTFAGYYYWGQGTQVTVSS | high polyreactivity
13 | QVQLVESGGGLVHAGGSRRLSCAASGNFFRYYVLGWYRQAPGTERECVAAITSSGGSKYYADSVKGRFTISRDNANNTVYLQMNSLKPEDTAVYYCAKDYWDPGWAEYDFWGQGTQVTVSS | low polyreactivity
14 | QVQLVESGGGLVQAGGSLRLSCAASGRTFFSYAMGWYRQAPGKEMELVAAISGSGGSTYYADSVKGRFTISRDNAKNTVYLQMNSLKPEDTAVYYCNAYQTTRGLDYWGQGTQVTVSS | low polyreactivity
15 | QVQLVESGGGLVQAGGSLRLSCAASGSIFYWYAMGWYRQAPGKERELVAGITGRGGSTYYADSVKGRFTISRDNAKNTVYLQMNSLKPEDTAVYYCAARYTRWRYNYKDYDYWGQGTQVTVSS | high polyreactivity
16 | QVQLVESGGGLVQAGGSLRLSCAASGSIFSTYAMGWYRQAPGKERELVAAITTSGGRTYYADSVKGRFTISRDNAKNTVYVQMNSLKPEETAVYYCNAVRGGRYGLDYWGQGTQVTVSS | high polyreactivity
17 | QVQLVESGGGLVQAGGSLRISCAASGITFYRYAMGWYRQAPGKEREFVAAINYGGSSTRYADSVKGRFTISRDNAKITVYLQMNSLKPEDTAVYYCAKVELARVEYDYWGQGTQVTVSS | low polyreactivity
18 | QVQLVESGGGLVQAGGSLRLSCAASGFTFFIYAMGWYTQAPGKEREFVAAITGSGGSTYYADSEKGRFTISRDNAKNTVYLQMNSLKTEVTAVYYCATGYWGRRRGGWRSGYWGQGTQVTVSS | high polyreactivity
19 | QVQLVESGGGLVQAGGSLRLSCAASGSTFLYYAMGWYRQAPGKERELVAVISWSGVSTYYADSVKGRFTISRDNAKNTVYLQMNSLTPEDTAVYYCNTGNHYIRTYGYWGQGTQVTVSS | low polyreactivity
20 | QVQLVESGGGIVQAGGSLRLSCAASGSTFFIYAMGWYRQAPGKERELVAAISGSGGTTYYADSVKGRFTISRDNAKNTVYLQMNSLKPEDTAVYYCAARTFSAFWRGGYDYWGQGTQVTVSS | low polyreactivity
21 | QVQLVESGGGLVQAGGSLRLSCAASGSISDWNAMGWYRQAPGKERELVAAINWSGDTTYYADSVKGRFTFSRDNSKNTVYLQMNSLKPEDTAVYYCAAYLVVDYDWYDYWGQGTQVTVSS | high polyreactivity
22 | QVQLVESGGGLVQAGGSLRLSCAASGRTFPVNGMGWYRQAPGKERELVAAITGGGSTNYADSVKGRFTISRDNAKNTVYLQMNSLKPEDTAVYYCAAGSYSRYLYSLYFDFDYWGQGTQVTVSS | low polyreactivity

Row | Sequence | polyreactivity (PSR sort gate)
23 | QVQRVESGGGLVQAGGSLRLSCAASGRTFSKNAMGRTRQAPGQETELVAAISGSGGSTYYADSVKGRFTISRDNAKNTVYLQMNSLKPEDTAVYYCADRYTVRRSGYWGQGTQVTVSS | high polyreactivity
24 | QVQHVESGGGLVQAGGSLRLSCAASGRTLIYNAMGWYRQAPGKERELVAAITGGGGRTYYADSVKGRFTISRDNAKNTVYLQMNSLKPEDTAVYYCAVAGTVLSHMGYWGQGTQVTVSS | low polyreactivity
25 | QVQLVESGGGLVQAGGSLRLSCAASGGIFGVYAMVWYRQAPGKERELVAAISQSDTSTYYADSVKGRFTISRDNAKNTVYLQMNSLKPEDTAVYYCADEYYLDYYTWFDYWGQGTQVTVSS | high polyreactivity
26 | QVQHVESGGGLVQAAGSLRLICYASGSIFGSYAMGWYRPAPGKERELVAAISSRGSRTYYADSVKGRFTISRDNAKNTVYLQMNSLKPEDTAVYYSNAGALTNYDYWGQGTQVTVSS | high polyreactivity
27 | QVQLVESGGGLVQAGGSLRLSCAASGFIFSGNAMGWYRQAPGKERELVARIRSGDRTYYADSVKGRFTISRDNAKNTVYLQMNSLKPEDTAVYYCAAYAWYDWRSYFPILGYEYCGQGTQVTVSS | low polyreactivity
28 | QVQLQESGGGLVQAGGDLRLSCAASGNIFRDYIMGWYRQAPRKEREFVAGIDRGANTNYADSVKGRFTISRDNAKNTVYLLLNSLKPEDTAVYYCAVHTAIVPDFIYWGQGTQVTVSS | low polyreactivity
29 | QVQLVESGGGLVQAGGSLRLSCAASGSTFYVYAMGWYRQAPGKERELVAAITVRGGSTYYADSVKGRFTISRDNAKYTVYLQMNSLKPEDTAVYYCAVDVSKPYYEMDYWGQGTQVTVSS | high polyreactivity
30 | QVQLVESGGCLVQAGGSLRLSCAASGSTFGLYAKGLYRQAPGTEREFVAAITSTGGSTYFADSVKGRFTISRDNAQNTVYLQLNSLKPEDTAVYDSYADFFVWRYPHYLIFGYWGQGTQVTVSS | low polyreactivity
31 | QDQLVESGGGLVQAGGSLRLSCAASGRTLTRYTMGWYRQAPGKERELVATISRSGGNTHYADSVKGRFTISRDTAKNTVYLQMNSLIPEDTAVYYCNAVRYAIYGYDYWGQGTQVTVSS | high polyreactivity
32 | QVQLVESGGGLVQAGGSLRISCAASGSTFSGNSMGRYRPAPGKERELFAAINSVRTYYADSVKGRFTISRDNAKNTVYLQMNSLIPEDTAVFSCAARQGYSSRFPAKGYYWGQGTQVTVSS | high polyreactivity
33 | QVQLVESGGGLVQAGGSLRLSCAASGSTFKSYTMGWYRQAPGKERELVAAITSSGRTNYADSVKGRFTISRDNAKNTVYLQMNSLKPEDTAVYYCAARWYYYPLLYDYWGQGTQVTVSS | low polyreactivity
34 | QVQLVESGGGLVQAGGSLRLSCAASGLIFWGYAMGWYRQAPGKERELVAAISSSGGSTYYADSVKGRFTISRDNAKNTVYLQMNSLKPEDTAVYYCNADYTYYPGYDYWGQGTQVTVSS | low polyreactivity
35 | QVQLVESGGGLVQAGGSLRLICAASGGIFNRYAMGWYRQAPGKEREFVASISRRGGSTYYADSVKGRFTISRDNAKNTVYLQMNSLKPDDTAVYFCGAEYNSEYDYWGQGTQVTVSS | high polyreactivity
36 | QVQLVESGGGLFQAGGSLRLSCAASGRTFRVYAMGWYRQAPGKEREFVAAISYSGGRTNYADSVKGRFTISRDYAKNTVYLQKNSLKPEDTAVYYCAARYTWAEGDYWGQGTQVTVSS | low polyreactivity
37 | QVQLVESGGGLVQAGGSLRLTCAASGFIFSKYAMGSYRQAPGKERELVAAISTSGASTYYADSVKGRFTISRDNAKNTVYLQMNSLKPEDTAVYYCNVPRYSPIRNYDYWGQGTQVTVSS | high polyreactivity
38 | QVQLVESGGGLDQAGGSLRLSCAASGSIFSTYAMGWYRQAPGKERELVAAISRNGGSTSYADSVKGRFTISRDNAKNTVYLQMNILKPEDTAVYYCNAGVYWPGEFDYWGQGTQVTVSS | high polyreactivity
39 | QVQLVESGGGLVQAGGSLSLICAASGSTFSQYFMGLYRQAPGKDRELVAGISSRGTSTYYADSVKGRFTISRDNAQNTFYLQMNSLKPEDTAVFYCNRGKLYNTYDYWGQGTQVNVSS | low polyreactivity
40 | QVQLVESGGGLVQAGGSLRLSCAASGFIFRRNAMGWYRQAPGKERELVASIRSGGSTKYADSVKGRFTISRDNAKNTVYLQMNSLKPEDTAVYYCAKDRYHISFFYQMEYWGQGTQVTVSS | low polyreactivity
41 | QVQLVESGGGLVQAGGSLRLSCAASGSTFARYAMGWYRQAPGKERELVAAISANGGITYYADSVKGRFTISRDNAKNTVYLQMNSLKPEDTAVYYCAARKSAYRFYRMNYWGQGTQVTVSS | high polyreactivity
42 | QVQLVESGGGLVQAGGSLRLSCAASGFTFRVNAMGWYRQAPGKERELVARISSSGGITYYADSVKGRFTISRDNAKNTVYLQMNSLKPEDTAVYYCAKEVYSGYSTRARSRYYEYYYWGQGTQVTVSS | high polyreactivity
43 | QVQLVESGGGLVQAGGSLRLSCADSGSIFKYYAMGWYRQAPGKERELDASISWSGGTTYYADSVKGRFTISRDNAKNTVYLQMNSLKPEDTAVYYCNARWWVRYSNKYDYWGQGTQVTVSS | high polyreactivity
